# Assay results reported in patent US20160122395A1, “Immunogenic compositions and a process for producing same” (THE […] INSTITUTE FOR MEDICAL RESEARCH AND PUBLIC HEALTH LTD, priority 2013, published 2016).
# How the values were obtained:
# [1] = molecular target: HIV-1 AD8 envelope glycoprotein (Env), wild type (HIV-1 (AD8 strain)); assay: cell-based or functional assay
# [2] = molecular target: HIV-1 AD8 Env ΔN139INN/K601N (HIV-1 (AD8 strain)); assay: cell-based or functional assay
# [3] = molecular target: HIV-1 AD8 gp120, wild type (HIV-1 (AD8 strain)); assay: 35S pulse-chase labelling, immunoprecipitation, gp120-shedding index
# [4] = system: HIV-1AD8 WL/KH virus; assay: Neutralization assay in TZM-bl cells, WL/KH virus; format: cell-based
# [5] = system: HIV-1AD8 WL/KH/DE virus; assay: Neutralization assay in TZM-bl cells, WL/KH/DE virus; format: cell-based
# [6] = system: HIV-1; conditions: monotherapy, HIV-1 infected individuals; cited from earlier work
# [7] = molecular target: HIV-1 AD8 gp120 T138N (HIV-1 (AD8 strain)); assay: 35S pulse-chase labelling, immunoprecipitation, gp120-shedding index
substance,measurement,setting,value
C34 fusion inhibitor peptide,"IC50, inhibition of Env-mediated cell-cell fusion by C34 (luciferase)",[1],0.1 µM
same,"IC50, inhibition of Env-mediated cell-cell fusion by C34 (luciferase)",[2],0.1 µM
HIV-1 AD8 gp41 K601N,"gp120 shedding into culture supernatant, fold with respect to WT",[3],4.4 fold
maraviroc,neutralization compared to the WT,[4],to similar extents
same,neutralization compared to the WT,[5],to similar extents
Ibalizumab: αCD4bs antibody used as monotherapy of HIV-1 infected individuals,viral load,[6],transient drop in viral load to nadir levels followed by a rebound in viral titre
HIV-1 AD8 gp41 K601D,"improvement of gp120-gp41 association, fold with respect to K601D",[7],2 fold
same,"gp120 shedding into culture supernatant, fold with respect to WT",[3],6.8 fold
